According to the supplement of paper PMC10201428:
± gives the standard deviation of the averaged measurements.

B1: library; a variant is named by its letters at N, in order (parent)
chain: AATGTTGTTGATGCAACCATAAAGTGATATTTAATAATTATTTATAATCAGCAACTTAACCACAAAACAACCATATATTGATATNTCACAAAACAACCATAANTTGATATTTTTGTGAATCGAGTATTTCAGCAAAACTACTGCAGTAAGAA

Columns and labels:
[1] = variants of: B1; assay: relative integration efficiency (T-LR orientation) vs wild-type transposon end (log2 (normalized fold change)); transposon end mutated: left end; higher = more efficient transposition; conditions: with VchCAST RNA-guided transposition machinery (E. coli BL21(DE3) host, lacZ target)
How it was run: (§1)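 Relative integration efficiency is a fold change of output over input barcode abundance, normalised to reference barcodes and log-transformed. Input plasmids and genomic integration junctions were PCR-amplified and Illumina-sequenced from E. coli BL21(DE3) co-transformed with a T7-driven effector plasmid and pUC57 donor pools of 1549 left-end or 1849 right-end transposon variants. Plating was done with 0.1 mM IPTG at 37°C for 18 h, with two biological output replicates and four reference barcodes.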

[2] = variants of: B1; assay: relative integration efficiency (T-RL orientation) vs wild-type transposon end (log2 (normalized fold change)); transposon end mutated: left end; higher = more efficient transposition; conditions: with VchCAST RNA-guided transposition machinery (E. coli BL21(DE3) host, lacZ target)
How it was run: as §1

Variant | relative integration efficiency (log2) [1] | relative integration efficiency (log2) [2]
AATGTTGTTGATGCAACCATAAAGTGATATTTAATAATTATTTATGGTGTCTCGCTTCAGCACAAAACAACCATATATTGATATCTCACAAAACAACCATAAGTTGATATTTTTGTGAATCGAGTATTTCAGCAAAACTACTGCAGTAAGAA | -3.701 ± 0.037 | -3.69 ± 1.2
AATGTTGTTGATGCAACCATAAAGTGATATTTAATAATTATTTATTTTCAGCAACTTAACCACAAAACAACCATATATTGATATCTCACAAAACAACCATAAGTTGATATTTTTGTGAATCGAGTATTTCAGCAAAACTACTGCAGTAAGAA | 0.446 ± 0.37 | 0.452 ± 0.058
AATGTTGTTGATGCAACCATAAAGTGATATTTAATAATTATTTATGATCAGCAACTTAACCACAAAACAACCATATATTGATATCTCACAAAACAACCATAAGTTGATATTTTTGTGAATCGAGTATTTCAGCAAAACTACTGCAGTAAGAA | -0.0959 ± 0.59 | -0.0807 ± 0.18
AATGTTGTTGATGCAACCATAAAGTGATATTTAATAATTATTTATCATCAGCAACTTAACCACAAAACAACCATATATTGATATCTCACAAAACAACCATAAGTTGATATTTTTGTGAATCGAGTATTTCAGCAAAACTACTGCAGTAAGAA | -0.118 ± 0.76 | -0.291 ± 0.11
AATGTTGTTGATGCAACCATAAAGTGATATTTAATAATTATTTATTATCAGCAACTTAACCACAAAACAACCATATATTGATATCTCACAAAACAACCATAAGTTGATATTTTTGTGAATCGAGTATTTCAGCAAAACTACTGCAGTAAGAA | -0.195 ± 0.93 | -0.0773 ± 0.14
AATGTTGTTGATGCAACCATAAAGTGATATTTAATAATTATTTATACGACGCAACTTAACCACAAAACAACCATATATTGATATCTCACAAAACAACCATAAGTTGATATTTTTGTGAATCGAGTATTTCAGCAAAACTACTGCAGTAAGAA | -1.93 ± 0.6 | -1.5 ± 0.48
AATGTTGTTGATGCAACCATAAAGTGATATTTAATAATTATTTATTTAGAGCAACTTAACCACAAAACAACCATATATTGATATCTCACAAAACAACCATAAGTTGATATTTTTGTGAATCGAGTATTTCAGCAAAACTACTGCAGTAAGAA | 0.192 ± 0.37 | 0.00752 ± 0.28
AATGTTGTTGATGCAACCATAAAGTGATATTTAATAATTATTTGTGAGCGGATAACAAACCACAAAACAACCATATATTGATATCTCACAAAACAACCATAAGTTGATATTTTTGTGAATCGAGTATTTCAGCAAAACTACTGCAGTAAGAA | -3.63 ± 2.8 | -4.04 ± 1.1
AATGTTGTTGATGCAACCATAAAGTGATATTTAATAATTATTTATCCGAAGCAACTTAACCACAAAACAACCATATATTGATATCTCACAAAACAACCATAAGTTGATATTTTTGTGAATCGAGTATTTCAGCAAAACTACTGCAGTAAGAA | -2.09 ± 0.25 | -1.44 ± 0.53
AATGTTGTTGATGCAACCATAAAGTGATATTTAATAATTATTTATAGGCAGTGAGCGCAACGCAATTCAACCATATATTGATATCTCACAAAACAACCATAAGTTGATATTTTTGTGAATCGAGTATTTCAGCAAAACTACTGCAGTAAGAA | -3.24 ± 2.1 | -2.77 ± 0.78
AATGTTGTTGATGCAACCATAAAGTGATATTTAATAATTATTTATATTCAGCAACTTAACCACAAAACAACCATATATTGATATCTCACAAAACAACCATAAGTTGATATTTTTGTGAATCGAGTATTTCAGCAAAACTACTGCAGTAAGAA | 0.0475 ± 0.098 | 0.0568 ± 0.074
AATGTTGTTGATGCAACCATAAAGTGATATTTAATAATTATTTATAGTCAGCAACTTAACCACAAAACAACCATATATTGATATCTCACAAAACAACCATAAGTTGATATTTTTGTGAATCGAGTATTTCAGCAAAACTACTGCAGTAAGAA | -0.05 ± 0.31 | -0.131 ± 0.15
AATGTTGTTGATGCAACCATAAAGTGATATTTAATAATTATTTATACTCAGCAACTTAACCACAAAACAACCATATATTGATATCTCACAAAACAACCATAAGTTGATATTTTTGTGAATCGAGTATTTCAGCAAAACTACTGCAGTAAGAA | -0.251 ± 0.89 | -0.0577 ± 0.11
AATGTTGTTGATGCAACCATAAAGTGATATTTAATAATTATTTTATTTCAGCAACTTAACCACAAAACAACCATATATTGATATCTCACAAAACAACCATAAGTTGATATTTTTGTGAATCGAGTATTTCAGCAAAACTACTGCAGTAAGAA | 0.462 ± 0.079 | -0.0681 ± 0.078
AATGTTGTTGATGCAACCATAAAGTGATATTTAATAATTATTTATACGCAGCAACTTAACCACAAAACAACCATATATTGATATCTCACAAAACAACCATAAGTTGATATTTTTGTGAATCGAGTATTTCAGCAAAACTACTGCAGTAAGAA | -0.613 ± 0.46 | -0.656 ± 0.35
AATGTTGTTGATGCAACCATAAAGTGATATTTAATAATTATTTATCCTCAGCAACTTAACCACAAAACAACCATATATTGATATCTCACAAAACAACCATAAGTTGATATTTTTGTGAATCGAGTATTTCAGCAAAACTACTGCAGTAAGAA | -0.43 ± 0.42 | -0.349 ± 0.19
AATGTTGTTGATGCAACCATAAAGTGATATTTAATAATTATTTATTTGTGAGCGGATAACAACAAAACAACCATATATTGATATCTCACAAAACAACCATAAGTTGATATTTTTGTGAATCGAGTATTTCAGCAAAACTACTGCAGTAAGAA | -1.93 ± 2 | -1.9 ± 0.78
AATGTTGTTGATGCAACCATAAAGTGATATTTAATAATTATTTTTAATCAGCAACTTAACCACAAAACAACCATATATTGATATCTCACAAAACAACCATAAGTTGATATTTTTGTGAATCGAGTATTTCAGCAAAACTACTGCAGTAAGAA | 0.138 ± 0.09 | 0.0943 ± 0.032
AATGTTGTTGATGCAACCATAAAGTGATATTTAATAATTATTTTAAATCAGCAACTTAACCACAAAACAACCATATATTGATATCTCACAAAACAACCATAAGTTGATATTTTTGTGAATCGAGTATTTCAGCAAAACTACTGCAGTAAGAA | 0.734 ± 0.13 | 0.214 ± 0.11
